# Source: the DeepSol protein solubility set
# Experiment: soluble on expression in E. coli; label from the status in PepcDB or PDB records
row,Sequence,soluble on expression in E. coli
1,MRKRLLGDEHPDVAFSLNNLATVLAATNHPEEALSHRIEASNINDQIIRNIFAFSSESDRLSFLDKIRNNFDLFLSLVCNHLANSNRAKLAALDFVLKRKALTASALAAQNQAFYNGRYPQLQEKFSQLRDLSNQIIHLTFAVPETDDLATYQDNIRQLQSRHNHLQKQLAAQVPEIQLSEQVFDCQAIAAALPHNSILVEFVRFDVFDFQAVSANGETQWHPARYLAFILTAGKPNAVQMIDLGVADTIDRLIQAFRLQASDYTLPTLAWGKAPKLRVKSYNPTPAIELSQALLEPIRGLVKDCRHLIIAPDGNLNLVPFQVLPIDATSSRLLMDEYTISYLGVGREILRSKFQPSTGSISAPLIIADPDFDLSGTGDWENNTRLDVRSLQLSNQFTETGLLRAPGTRFLGESVAKKLPDAKLYLGAEALETRLTNSNCPKIMLIATHGLFQSDSQAQPVTKRRNLLSMERQRTTKVENPMLRSGLALAGANTWLAGGTLPLAAGKGFVFAQDIANLDLWANELTVLSACDTARGDIKIGEGVFGLRRAFAVAGTKTLVMSLWSVPDKVTALLMERFFDNLQSGMSRSEALDSAQNYIRNITVKELRASALGLEVLKELLAVKELSANSRIDCQEDDTPLEHPFYWGAWICQGNTNPLVNLEHHHHHH,not soluble
2,MRKYTFKTQRPKIVVIGGGTGLPVVLNGLRKQAVDITAVVTVADDGGSSGIIRNYVNVVPPGDIRNVMVALSSWPDLYKDIFQYRFQGDDQFFAGHAIGNLIIAALTEMKSGVFDAVQELSNMMQVDGHVYPAANEALTLHGKFSDGTELVGEAEITAAHKSLERVWVTDKNGKEPQAVQPVIDAIMAADQIVLGPGSLFTSILPNLTIGNIGRAVCESDAEVVYICNIMTQKGETDNFSDADHVRVLNRHLGQNFINTVLVNTEKVPEDYMDFHKFNEVSKQVSHDFRGLREQNCRVISSNFLKLRDNGAFHDGDQVVAELMNLVGHSDVFRLEHHHHHH,soluble
3,MRLAFWLYEGTALHGVSRVTNSMKGVHTVYHAPQGDDYITATYTMLERTPEFPKLSISVVRGQDLARGTSRLPGTVEQVDKHYKPELIVVAPSCSTALLQEDLGQMARASGVDQSKIMVYAVNPFRVAENEAAEGLFTELVRRFAAEQPKTEKPSVNLLGFTSLGFHLRSNLTSLRRMLKTLGIEVNVVAPWGAGIDDLKKLPAAWVNIAPFREIGCQAAGYLKEKFGMPSITEAPLGVNATLRWLRAIIAEVNKIGAEKGMAPMAMPELRDFSLDGQSAPSSVPWFARTADMESFSNKRAFVFGDATQVVGVTKFLKDELGMKIIGAGTYLPKQADWVREQLEGYLPGELMVTDKFQEVSAFIEEEMPELVCGTQMERHSCRKLDVPCMVISAPTHIENHLLGYYPFFGFDGADVMADRVYTSAKLGLEKHLIDFFGDAGLEYEAEEPEAFTEPTMSGNGTVASVSSAEAPSEAAVVTATATGELSWTAEAEKMLGKVPFFVRKKVRKNTDNYAREIGEPVVTADVFRKAKEHLGGLEHHHHHH,not soluble
4,MRLIVVSGQSGAGKSVALRVLEDLGYYCVDNLPVSLLTAFIQSVQGSQQNVAVSIDIRNLPKEPSLVQDVLDQLKQNNDVSMLFLDASKETLLKRYSETRRIHPLSLSQSKPSLAQAIELEKQLLGPLKEQADLLLDSSNQSLHELSETVRMRIEGRERKDLVMVFQSFGFKYGLPTDADYVFDVRFLPNPHWEPDLRPLTGLDAPIKSFLEGHSEVMELKQQIQKFFEYWLPMLEKNNRSYLTIAIGCTGGKHRSVYLTQQLGEYFAQLGHQVQLRHTSLEKQQS,not soluble
5,MRLRLLSLPFILSLCAPLLPLNTLAAERIVTIGGDVTEIAYALGAGDEIVARDSTSQQPQAAQKLPDVGYMRTLNAEGILAMKPTMLLVSELAQPSLVLTQIASSGVNVVTVPGQTTPESVAMKINAVATALHQTEKGQKLIEDYQQRLAAVNKTPLPVKVLFVMSHGGLTPMAAGQNTAADAMIRAAGGSNAMQGFSRYRPLSQEGVIASAPDLLLITTDGVKALGSSENIWKLPGMALTPAGKHKRLLVVDDMALLGFGLETPQVLAQLREKMEQMQ,not soluble
6,MRLSFLTLQRRNAVGDALRHKSALRRILKTGRRASGTACDAERRTIVEKLPHDSLEHHHHHH,not soluble
7,MRLTIPILKEGGMLMKFGFIGAGKVGFSLGKYLADNNQNVVGYYSIINEEAIEAAKFTGSKYYENMEQLVEDSEVLFLTVPDGQIENLWNQLKSSHKNWMAKYNKPLLNNKIVCHCSGALSSDIFSSIAEYESFGYSIHPLFAVSNRYESYKELSDSYFTIEGNIEKINKMKELFESFGNTVCIISKDDKIKYHGAAAIASNLVVGLIGLSEELLKQCGFDEKSAHNALAPIIKGNVKHIVEEGVVEALTGPIERCDVSTVRKHMSVFDKKTNEIYKAVSKEVLEIAKIKNKDRDYSKMEEVLQ,not soluble
8,MRLTTKGRYAVTAMLDLALHAQQGPVSLADISERQGISLSYLEQLFAKLRRGNLVTSVRGPGGGYQLSRHMSGIHVAQVIDAVNESVDATRCQGQGDCHSGDTCLTHHLWCDLSLQIHEFLSGISLADLVSRQEVQEVALRQDERRCSGKTPRLDKIEASAID,not soluble
9,MRLVYGLGRSGLGVLRFLRKRGLPARFYDDRPREEEVREALALGFQPDWNLEEAYEEVVAAPGVPLDHPHLKRLAARGAKVLGEAELAYRLSPTPIVGITGTAGKTSTTLFTAHLLRAHGLRAREGGNVDPPLVSVVDEAEVAVAELSSFQLERVHAFRPRVAVLLNLGVDHLDRHGTVEAYHAAKLNLLKNLTPEDALVYNRLDPKVRRAAEASPARLYPFTPGSTPRETNLRAVLEATRAYLDLLGRPLDPGAVAEALRTLPEAPHRFQAFARKGGVVFIDDSIATRTEAVRAALEAVPAPIAWILGGEDKGADLAPLLPLLGRVRVALALGRDGPRFARALEGRTEVVVIAEKDGRTAMRKAVEEALSRLEQGSVLLAPLAASFDQFRDYKDRAQAFREAVFALGGEPWTPSSS,soluble
10,MRMKALLIDYGSGNLRSAAKALEAAGFSVAVAQDPKAHEEADLLVLPGQGHFGQVMRAFQESGFVERVRRHLERGLPFLGICVGMQVLYEGSEEAPGVRGLGLVPGEVRRFRAGRVPQMGWNALEFGGAFAPLTGRHFYFANSYYGPLTPYSLGKGEYEGTPFTALLAKENLLAPQFHPEKSGKAGLAFLALARRYFEVL,soluble
11,MRNIIFTGKGGVGKTSVAAATALKAADMGYKTLIMSTDPAHSLGDSLDIELGPSPVKVAENLWGQEVSVFGDLNLNWDVVREHFAHLMASRGIEGVYAEEMGVLPGMEELFSLSYIKRYNEEQKDFDLLVVDCAPTGETLRLLSLPETFGWFIKMIRNIEKYMVKPVIRPLSKKVKKLDDFVAPEEVYEKVDNLFSSTEGIIDLLADGTKTTMRLVMNPEKMVIKESMRALTYLNLYGITVDRITINRVMPDQSPDPYFQQWRNIQQKYIDQINSAFAPIPVAEVPLFNNEVVGLEMLRKVGEKVYGDENPLDIF,not soluble
12,MRNNGALGLTSKSLKNDKIMNVRTKDRGEPSTVKFSPDGRLCAMQRTPTTADVVFLEKTETSLCLELTVNTKSKEPLLAVEWVTNNQLLLVNNHSAELLYINEDKKSSKLLKATNVNAAWAIYYAPSQLLLIANGQSCSYLQPFVVTHSQFTRMKGFEVDFGGSISKENFLEKDAAIATIYGRVYVLVFKYSNRNATVLDLYELPFDAATGPSFKHSLILGFNGGCGIHVIDNLVVVHHQASQKSLIFDIRVSSPSKSHSPLVVTTIESHPQHQPPPALYTNFWFTFLPDIVIDSSGGVMYSIRLKNEHAQLEIADKQTMLEYLARRSNEKKLFVTTLLACLKARALSLRQIRKVFAMLTGVTGKSKSSFFCNGNFKLRQMANLPICRRCSISANCRFAGNFQIRQISDLAEIFIFSKFSVLPETCNSGKLIICRFAGDEEVSLPESYVANIMLQYLRSLFDAEITPEAYLIEMVVETLAEAGEMSKLQQIVTYRVINDSKPLAFLLLSYEARCSTLFQSGVDILARNKASDEIVEVMLEKKQIVDAFRFIDVRNLNDALIPKVVEAANQHCVRQTRYAIKEHLTEKKAKASLYKSIGDELYTAEEVKGASEEQATCALFEI,not soluble
13,MRNTMRSFILRARSAPTDSQRLLDEIGGKCHTEILAHCMMNSLFTAQSHREDVVIHLVLESTRDYSRTITVEANEISDVGGFHEAALIALLVKALDASVGMGKEQTRVVQPGLTVRTISFEALLGELAEHHSLYMMDKKGDSIRDIKIGPNPCFILTDHIPMPKKSGNSMKRLGVEKISLGPKMLFASQCVTLIHNEIDHQEAGW,soluble
14,MRNVELIFIPTPTVGHLVPFLEFARRLIEQDDRIRITILLMKLQGQSHLDTYVKSIASSQPFVRFIDVPELEEKPTLGSTQSVEAYVYDVIERNIPLVRNIVMDILTSLALDGVKVKGLVVDFFCLPMIDVAKDISLPFYVFLTTNSGFLAMMQYLADRHSRDTSVFVRNSEEMLSIPGFVNPVPANVLPSALFVEDGYDAYVKLAILFTKANGILVNSSFDIEPYSVNHFLQEQNYPSVYAVGPIFDLKAQPHPEQDLTRRDELMKWLDDQPEASVVFLCFGSMARLRGSLVKEIAHGLELCQYRFLWSLRKEEVTKDDLPEGFLDRVDGRGMICGWSPQVEILAHKAVGGFVSHCGWNSIVESLWFGVPIVTWPMYAEQQLNAFLMVKELKLAVELKLDYRVHSDEIVNANEIETAIRYVMDTDNNVVRKRVMDISQMIQRATKNGGSSFAAIEKFIYDVIGIKP,soluble
15,MRPDLSRVPGVLGEIARKRASEVAPYPLPEPPSVPSFKEALLRPGLSVIAEVKRQSPSEGLIREVDPVEAALAYARGGARAVSVLTEPHRFGGSLLDLKRVREAVDLPLLRKDFVVDPFMLEEARAFGASAALLIVALLGELTGAYLEEARRLGLEALVEVHTERELEIALEAGAEVLGINNRDLATLHINLETAPRLGRLARKRGFGGVLVAESGYSRKEELKALEGLFDAVLIGTSLMRAPDLEAALRELVG,soluble
16,MRRGMTGLKTLAQQIALIWKNDPQQFESQAVAVMDAVKNRMPGRAKINVDVFSKLELSLRTSFDLQDGGFSGSPKFFNTPALNYLLERFYETGNEEILNFIGLTLKTISIRGIHDLVNGGFFRYSTDTMWIVPHFEKMLYTQTQLMKLFSKMFMLTRDNVYRDMIYDIKRFMDENLYWPGHGYYSGMDADVDGNEGGYYKWSFQDLKVALGQDFEAFRAIFDISEGGNYMDELYGQTGDNLIYFTGSFDEYRRSIEENGSTDMLSRSIEKLREAEKKRKKPSVDKKILTDLNGLAISSLSWAYRATGDKEFLDSAVSVSEFIIKNMIGDYLLHSFFEGSASVKSSLFDYAFLIRGLIDLYTITFDQKYLEEAKKLADEAIKFLFDGKFKLSEEIDDPQIADSEVESPYATIVADLDDLSLLTEDLQYHQIADQALTSVFDAVSRFPSAFPSLEHHHHHH,not soluble
17,MRRNYSRVIDELRTDYGLNLVAIGQRLGTDPRTVGKWWQGKHNPNQESRKKLNRLYREVKETMMTQVNIFEEANDNTKQVMQVITTTNFHGQPLDIYGDIQEPLFLARAVAEMIDYTKTSQGYYDVQAMLRKVDEDEKLKGMALEGTTKNFRSGQKVWFLTEHGLYEVLMRSNKPKAKEFRKAVKNILKEIRLNGYYMQGELVQELAQPSTQKLPGISDLTYILNKLADLVDMDNLADISNGIDRVQQLVKLISL,not soluble
18,MRRRSNRQYVDLSYFRETADALLFDVETNSREFTNEINTVKEEKAKWDERTPQGYTAKPISFEGADIWCSWICTVPGPRGSPWEGGEYEVSVNFHKWPIIPPICEFKTPLHHPNVDLRGSIYLKMLEQEHWSSETSLKKLLREISNLLATPDLTQAANIEAWMEYENQRENYEAKARAYAWTVNPNAVGYMEVSENSGIQRETAKAKLAVQNGAMESDEDDDDLPIDIEN,not soluble
